“Also recorded” adds a separate entry of the source.
What was measured:
[1] = tested on: human neurons; test: NLS-TdTomato cytotoxicity assay (cytoplasmic leakage of NLS-TdTomato)
Experimental: (§1) The MTT assay employs yellow tetrazolium dye that is reduced to a purple formazan crystal by viable cells with active metabolism ([21]). Because it measures metabolic activity in all cells, this assay serves as a broad cytotoxicity read out for the entire glia/neuron coculture system. The amount of formazan produced is then measured because it is directly proportional to the number of viable cells ([21]) (Figure 1B and Supplemental Figure 1A). The nuclear localization TdTomato assay, conversely, enables monitoring of cellular stress by tracking the localization of fluorescent TdTomato fused to a nuclear localization signal. Under healthy conditions, the nuclear localization signal directs the NLS-TdTomato to the nucleus. When toxicity in a cell causes a reduction in ATP levels, NLS-TdTomato leaks out of the nucleus into the cytoplasm, which we scored as an index of toxicity (Figure 1, C and D, and Supplemental Figure 1, B–D). Because the reporter is expressed only in neurons, this assay specifically assesses neurotoxicity within the coculture. We developed this assay because it can be performed on live cells and reflects decreases in ATP levels in these cells. […]
To assess neuronal cytotoxicity induced by Aβ peptides, we employed a novel Td-Tomato cytotoxicity assay that we developed. […] Neurons displaying cytoplasmic Td-Tomato were counted as indicators of cytotoxicity. […]

[2] = Native PAGE and immunoblotting of the aggregation state of Aβ peptides; assay type: physicochemical; details: stock solutions incubated at 37°C for 60 or 90 minutes, native PAGE, immunoblot 4G8 / Abcam 126892
Experimental: To assess the aggregation state of Aβ peptides in stock solutions, we performed native polyacrylamide gel electrophoresis (PAGE) followed by immunoblotting. Stock solutions of Aβ peptides were incubated at 37°C for 1.5 and/or 1 hours to promote aggregate formation. After incubation, samples were diluted 1:2 with native PAGE sample buffer to maintain nondenaturing conditions. The samples were loaded onto 4%–15% gradient polyacrylamide Criterion gels (Bio-Rad), which allow for the separation of proteins across a wide range of molecular weights under native conditions. Electrophoresis was conducted using Tris-Glycine buffer at 4°C for 3 hours to preserve the native structure of the peptide aggregates during separation. A constant voltage appropriate for native PAGE was applied throughout the run ([49]). Following electrophoresis, proteins were transferred onto Nitrocellulose (0.45 μm) membranes using a semidry transfer apparatus optimized for proteins of mixed molecular weights. The transfer was performed according to the manufacturer’s instructions, ensuring efficient transfer of both low and high molecular weight species. Membranes were blocked with 5% BSA (GeminiBio) in Tris-buffered saline with 0.1% Tween-20 (TBST) at room temperature for 1 hour to prevent nonspecific antibody binding. […] Blots were imaged using the Odyssey Infrared Imager CLX and analyzed using Image Study 5.2.5. […]

[3] = tested on: human neurons cocultured with mouse glia (entire glia/neuron coculture)
Experimental: as §1, with “cells. The NLS-TdTomato assay was validated by treating cultures with 5% DMSO and 200 μM hydrogen peroxide, 2 well-established neurotoxins.” for “cells.”

-.DAEFRHDSGYEVHHQKLVFFAGDVGSNKGAIIGLMVGGVVI.A [Aβ42^arctic]
Concentration at which neurotoxicity became apparent, NLS-TdTomato assay [1]: greater than or equal to 0.1 μM
Aggregation state in native gel analyses (in words) [2]: completely aggregated even at lower concentrations; also recorded: quantitatively aggregated
Concentration at which neurotoxic, MTT assay [3]: greater than or equal to 0.025 μM
